The values below come from article PMC6651687.

For the data set, the target named is T1, TTHA0973 (PaaR, TetR family) (Thermus thermophilus HB8) (UniProt Q5SJN5).
T1 sequence: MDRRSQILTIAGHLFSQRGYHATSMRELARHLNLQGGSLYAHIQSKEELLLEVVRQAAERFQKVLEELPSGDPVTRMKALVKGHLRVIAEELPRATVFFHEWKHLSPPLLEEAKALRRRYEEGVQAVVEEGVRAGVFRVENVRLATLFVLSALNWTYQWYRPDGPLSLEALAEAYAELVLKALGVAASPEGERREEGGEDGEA
The data set can be described thus: BLI. The note with it: BLI with 11, 33, 100, 300 nM TTHA0973; EMSA 0-100 nM; buffer, salt, pH, temperature not given (cited protocol). A general note: A gel shift assay detects complexes by their altered migration in electrophoresis.

Take “CTAGGAATTCGTGCAGAGGTGAATACCTAGCGTTACTTTTACCATCCCTCCAGAAGCTTGGACA (double strand) [ST2_0973_0647bp]”: the Kd worked out at 99.5 nM.

Broadly, the Kd is the constant that tells how readily two partners part at equilibrium.
